Our source for the abundance fitness values is the Human Domainome abundance scans (Beltran et al. 2025).

± gives the uncertainty stated by the source.

The data set can be described thus: abundance fitness (aPCA) (normalised: wild type 0, dead -1); higher = more abundant; growth selection in yeast, the domain comes from the species named. The following applies: Homo sapiens.
In turn, “Transcriptional activator Myb A167C, P10242” registered an abundance fitness of -0.17 ± 0.12.

As for “Transcriptional activator Myb A167D, P10242”, the abundance fitness was -0.177 ± 0.16. Consider “Transcriptional activator Myb A167E, P10242”, for which the abundance fitness was found to be 0.009 ± 0.13.

“Transcriptional activator Myb A167F, P10242” registered an abundance fitness of -0.092 ± 0.12. Turning to “Transcriptional activator Myb A167G, P10242”, the abundance fitness came to 0.045 ± 0.06. The substance “Transcriptional activator Myb A167H, P10242” gave an abundance fitness of 0.258 ± 0.24. “Transcriptional activator Myb A167I, P10242” yielded an abundance fitness of -0.253 ± 0.22.

On to “Transcriptional activator Myb A167K, P10242”, for which the abundance fitness was -0.124 ± 0.11. The result for “Transcriptional activator Myb A167L, P10242” reads -0.224 ± 0.079; that for “Transcriptional activator Myb A167M, P10242”, -0.313 ± 0.15.

The substance “Transcriptional activator Myb A167N, P10242” showed an abundance fitness of -0.058 ± 0.11. Substance “Transcriptional activator Myb A167P, P10242” came in with an abundance fitness of 0.037 ± 0.12. The figure for “Transcriptional activator Myb A167Q, P10242” is 0.015 ± 0.14. In turn, “Transcriptional activator Myb A167R, P10242” displayed an abundance fitness of -0.146 ± 0.069. In turn, “Transcriptional activator Myb A167S, P10242” had an abundance fitness of -0.095 ± 0.09. “Transcriptional activator Myb A167T, P10242” registered an abundance fitness of -0.126 ± 0.12. For the substance “Transcriptional activator Myb A167V, P10242”, the abundance fitness is -0.083 ± 0.1. Regarding “Transcriptional activator Myb A167W, P10242”, the abundance fitness was -0.27 ± 0.063.

Consider “Transcriptional activator Myb A167Y, P10242”, for which the abundance fitness is -0.172 ± 0.12.

For the substance “Transcriptional activator Myb A170C, P10242”, the abundance fitness was -0.137 ± 0.13. The substance “Transcriptional activator Myb A170D, P10242” displayed an abundance fitness of -0.692 ± 0.12.

The substance “Transcriptional activator Myb A170E, P10242” showed an abundance fitness of -0.285 ± 0.12. The result for “Transcriptional activator Myb A170F, P10242” reads -0.896 ± 0.19.

As for “Transcriptional activator Myb A170G, P10242”, the abundance fitness is -0.229 ± 0.058. The figure for “Transcriptional activator Myb A170H, P10242” is -0.716 ± 0.26. In the case of “Transcriptional activator Myb A170I, P10242”, the abundance fitness was -1.45 ± 0.42. “Transcriptional activator Myb A170K, P10242” came in with an abundance fitness of -0.581 ± 0.14. Regarding “Transcriptional activator Myb A170L, P10242”, the abundance fitness was -0.743 ± 0.082.

“Transcriptional activator Myb A170M, P10242” displayed an abundance fitness of -0.393 ± 0.11. The figure for “Transcriptional activator Myb A170N, P10242” is -0.655 ± 0.28; for “Transcriptional activator Myb A170P, P10242” it is -0.809 ± 0.18; for “Transcriptional activator Myb A170Q, P10242” it is -0.056 ± 0.094.

In the case of “Transcriptional activator Myb A170R, P10242”, the abundance fitness is -0.516 ± 0.059. With “Transcriptional activator Myb A170S, P10242”, the abundance fitness was -0.038 ± 0.087. The figure for “Transcriptional activator Myb A170T, P10242” is -0.771 ± 0.12. Consider “Transcriptional activator Myb A170V, P10242”, for which the abundance fitness was -0.428 ± 0.063. The figure for “Transcriptional activator Myb A170W, P10242” is -0.811 ± 0.12. The result for “Transcriptional activator Myb A170Y, P10242” reads -1.08 ± 0.18. The figure for “Transcriptional activator Myb A180C, P10242” is -0.021 ± 0.12; for “Transcriptional activator Myb A180D, P10242” it is -0.022 ± 0.12; for “Transcriptional activator Myb A180E, P10242” it is 0.062 ± 0.098. In the case of “Transcriptional activator Myb A180G, P10242”, the abundance fitness is -0.244 ± 0.049. The substance “Transcriptional activator Myb A180H, P10242” showed an abundance fitness of -0.23 ± 0.097. In the case of “Transcriptional activator Myb A180I, P10242”, the abundance fitness is -0.005 ± 0.32.

“Transcriptional activator Myb A180K, P10242”: the abundance fitness was -0.266 ± 0.082. The result for “Transcriptional activator Myb A180L, P10242” reads -0.111 ± 0.073; that for “Transcriptional activator Myb A180M, P10242”, -0.058 ± 0.16. Regarding “Transcriptional activator Myb A180N, P10242”, the abundance fitness was -0.134 ± 0.33. The figure for “Transcriptional activator Myb A180P, P10242” is -0.76 ± 0.12; for “Transcriptional activator Myb A180Q, P10242” it is -0.002 ± 0.12. The figure for “Transcriptional activator Myb A180R, P10242” is -0.327 ± 0.051; for “Transcriptional activator Myb A180S, P10242” it is -0.051 ± 0.083. “Transcriptional activator Myb A180T, P10242” came in with an abundance fitness of -0.174 ± 0.078. The figure for “Transcriptional activator Myb A180W, P10242” is -0.28 ± 0.11; for “Transcriptional activator Myb A180Y, P10242” it is -0.803 ± 0.43; for “Transcriptional activator Myb D152A, P10242” it is -0.24 ± 0.066. In the case of “Transcriptional activator Myb D152C, P10242”, the abundance fitness is -0.833 ± 0.14. In the case of “Transcriptional activator Myb D152E, P10242”, the abundance fitness is 0.105 ± 0.077. “Transcriptional activator Myb D152F, P10242” had an abundance fitness of -0.752 ± 0.12. The figure for “Transcriptional activator Myb D152G, P10242” is -0.452 ± 0.053; for “Transcriptional activator Myb D152H, P10242” it is -0.695 ± 0.22. “Transcriptional activator Myb D152K, P10242”: the abundance fitness was -0.311 ± 0.1. As for “Transcriptional activator Myb D152L, P10242”, the abundance fitness is -0.249 ± 0.075. The result for “Transcriptional activator Myb D152M, P10242” reads -0.381 ± 0.15; that for “Transcriptional activator Myb D152N, P10242”, -0.227 ± 0.074.

“Transcriptional activator Myb D152Q, P10242” had an abundance fitness of -0.065 ± 0.12.

With “Transcriptional activator Myb D152R, P10242”, the abundance fitness is -0.519 ± 0.068. Regarding “Transcriptional activator Myb D152S, P10242”, the abundance fitness was -0.287 ± 0.072. “Transcriptional activator Myb D152T, P10242” had an abundance fitness of -0.138 ± 0.082. With “Transcriptional activator Myb D152V, P10242”, the abundance fitness was -0.304 ± 0.067.

In the case of “Transcriptional activator Myb D152W, P10242”, the abundance fitness was -0.403 ± 0.098.

The substance “Transcriptional activator Myb D152Y, P10242” came in with an abundance fitness of -0.38 ± 0.12.

As to “Transcriptional activator Myb D178N, P10242”, the abundance fitness was -0.533 ± 0.35. The substance “Transcriptional activator Myb E149D, P10242” registered an abundance fitness of -0.008 ± 0.27. For the substance “Transcriptional activator Myb E149G, P10242”, the abundance fitness was -0.143 ± 0.16.

On to “Transcriptional activator Myb E149L, P10242”, for which the abundance fitness stood at 0.009 ± 0.22. With “Transcriptional activator Myb E149N, P10242”, the abundance fitness is -0.526 ± 0.35. “Transcriptional activator Myb E149R, P10242” had an abundance fitness of -0.203 ± 0.12. In the case of “Transcriptional activator Myb E149S, P10242”, the abundance fitness was -0.188 ± 0.4. In the case of “Transcriptional activator Myb E149T, P10242”, the abundance fitness was -0.634 ± 0.43. For the substance “Transcriptional activator Myb E149W, P10242”, the abundance fitness was -0.719 ± 0.47. The substance “Transcriptional activator Myb E150A, P10242” yielded an abundance fitness of 0.099 ± 0.075. The substance “Transcriptional activator Myb E150C, P10242” showed an abundance fitness of -0.219 ± 0.1. The figure for “Transcriptional activator Myb E150D, P10242” is -0.152 ± 0.095; for “Transcriptional activator Myb E150F, P10242” it is -0.129 ± 0.16; for “Transcriptional activator Myb E150H, P10242” it is -0.41 ± 0.15. Substance “Transcriptional activator Myb E150I, P10242” displayed an abundance fitness of -0.172 ± 0.12.

Consider “Transcriptional activator Myb E150K, P10242”, for which the abundance fitness was 0.117 ± 0.11. The figure for “Transcriptional activator Myb E150L, P10242” is -0.17 ± 0.064; for “Transcriptional activator Myb E150M, P10242” it is -0.097 ± 0.086.

On to “Transcriptional activator Myb E150N, P10242”, for which the abundance fitness was -0.004 ± 0.15.

“Transcriptional activator Myb E150P, P10242”: the abundance fitness is -0.468 ± 0.12. The figure for “Transcriptional activator Myb E150Q, P10242” is 0.026 ± 0.14. The figure for “Transcriptional activator Myb E150R, P10242” is 0 ± 0.061; for “Transcriptional activator Myb E150T, P10242” it is -0.103 ± 0.1.
